Experimental data from patent US20170051304A1 (DOW AGROSCIENCES, published 2017).
Several values for one entry are separate records, joined by “and”; a condition that tells them apart may be missing. Identical values can stand only once. Where no end group is shown, it is not given here.

T1: Large fragment (residues 12-390) of trypsin treated DIG-984 (DIG-177 C88>A; C451>A) (Bacillus thuringiensis) (UniProt Q45757)
T1 sequence: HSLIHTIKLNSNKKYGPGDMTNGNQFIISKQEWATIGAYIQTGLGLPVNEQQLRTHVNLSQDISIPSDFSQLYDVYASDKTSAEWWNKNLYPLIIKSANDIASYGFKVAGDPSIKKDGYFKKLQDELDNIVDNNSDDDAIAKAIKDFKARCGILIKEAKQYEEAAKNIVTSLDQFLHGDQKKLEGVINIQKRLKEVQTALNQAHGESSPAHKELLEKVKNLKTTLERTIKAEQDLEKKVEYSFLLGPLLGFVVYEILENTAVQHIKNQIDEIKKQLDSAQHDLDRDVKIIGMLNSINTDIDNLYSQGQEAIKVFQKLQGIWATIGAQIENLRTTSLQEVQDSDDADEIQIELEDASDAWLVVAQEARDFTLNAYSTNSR

T2: Large fragment (residues 12-390) of trypsin treated DIG-616 (DIG-177 C162>A) (Bacillus thuringiensis, UniProt Q45757 12-390)
T2 sequence: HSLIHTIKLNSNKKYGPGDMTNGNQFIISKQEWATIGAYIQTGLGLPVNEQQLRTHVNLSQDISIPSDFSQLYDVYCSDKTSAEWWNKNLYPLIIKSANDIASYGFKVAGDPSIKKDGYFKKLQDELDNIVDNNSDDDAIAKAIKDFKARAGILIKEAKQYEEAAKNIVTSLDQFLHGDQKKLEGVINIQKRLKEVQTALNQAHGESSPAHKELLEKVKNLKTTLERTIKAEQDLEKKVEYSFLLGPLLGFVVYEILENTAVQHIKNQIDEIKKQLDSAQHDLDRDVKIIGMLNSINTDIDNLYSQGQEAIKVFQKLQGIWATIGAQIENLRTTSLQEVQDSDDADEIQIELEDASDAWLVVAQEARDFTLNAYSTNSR


Tests used:
[1] = molecular target: T1, Large fragment (residues 12-390) of trypsin treated DIG-984 (DIG-177 C88>A; C451>A) (Bacillus thuringiensis); experiment: cell-based or functional assay
[2] = molecular target: T2, Large fragment (residues 12-390) of …; experiment: cell-based or functional assay
[3] = molecular target: the molecule itself; experiment: SDS-PAGE of undigested full-length DIG-177 (self-association)
Protocol: SDS-PAGE was run following the protocol NuPAGE Bis-Tris gels from Invitrogen Life technologies (Protocol Pub. No. MAN0007894 Rev. A.0, Ref. 2). Briefly, samples were mixed with denaturing sample buffer (Invitrogen) plus 5 mM DTT (for reducing PAGE) or minus DTT (for non reducing PAGE) and heated at 95° C. for 5 minutes. The samples were loaded onto Invitrogen Bis/Tris gel. The gel was run with MOPS or MES running buffer under 200 V for ˜43 minutes. The gel was stained with Coomassie blue staining solution (Bio-Rad) for 30 minutes and de-stained with de-staining solution (7% Acetic acid and 5% Methanol in water) until the background cleared.

| Binder | % Mortality [1] | % Mortality [2] | other results |
| --- | --- | --- | --- |
| APENNFMIYWYNNSDWYNNSDWYNN [Carboxy terminal peptide 451-475 of trypsin treated DIG-984 (C451>A)] | 0% and 21.1% and 15% |  |  |
| CPENNFMIYWYNNSDWYNNSDWYNN (also: Cys451 (position 1) disulfide-bonded to Cys88 of LF under non-reducing conditions) [CTP 2 (Carboxy terminal peptide 2), amino acids 451-475 of SEQ ID NO:2] |  | 95% |  |
| NSNLEYKAPENNFMIYWYNNSDWYNNSDWYNN [Carboxy terminal peptide 444-475 of trypsin treated DIG-984 (C451>A)] | 0% and 21.1% and 15% |  |  |
| NSNLEYKCPENNFMIYWYNNSDWYNNSDWYNN (also: Cys451 (position 8) disulfide-bonded to Cys88 of LF under non-reducing conditions) [CTP 1 (Carboxy terminal peptide 1), amino acids 444-475 of SEQ ID NO:2] |  | 95% |  |
| DIG-177 (full length wild type Cry6Aa) (other, Insecticidal crystal protein; Recombinant from Pseudomonas fluorescens (standard), or expressed in maize, there in part with transit peptides) MIIDSKTTLPRHSLIHTIKLNSNKKYGPGDMTNGNQFIISKQEWATIGAYIQTGLGLPVNEQQLRTHVNLSQDISIPSDFSQLYDVYCSDKTSAEWWNKNLYPLIIKSANDIASYGFKVAGDPSIKKDGYFKKLQDELDNIVDNNSDDDAIAKAIKDFKARCGILIKEAKQYEEAAKNIVTSLDQFLHGDQKKLEGVINIQKRLKEVQTALNQAHGESSPAHKELLEKVKNLKTTLERTIKAEQDLEKKVEYSFLLGPLLGFVVYEILENTAVQHIKNQIDEIKKQLDSAQHDLDRDVKIIGMLNSINTDIDNLYSQGQEAIKVFQKLQGIWATIGAQIENLRTTSLQEVQDSDDADEIQIELEDASDAWLVVAQEARDFTLNAYSTNSRQNLPINVISDSCNCSTTNMTSNQYSNPTTNMTSNQYMISHEYTSLPNNFMLSRNSNLEYKCPENNFMIYWYNNSDWYNNSDWYNN |  |  | binding result [3]: binds |
